The results in this text go back to PMC7489885 (Cell, 2020).

The target of the assay is SARS-CoV-2 RBD (residues 319-541) with an N-terminal His6 tag (SARS-CoV-2, UniProt P0DTC2). As to the kind of experiment: crystal structure.

B1: BD-236 Fab (Fab, V domains shown)
VH: EVQLVESGGGLIQPGGSLRLSCAASGITVSSNYMSWVRQAPGKGLEWVSVIYSGGSTDYADSVKGRFTISRDKSKNTLYLQMNSLRAEDTAVYYCARDLGEAGGMDVWGQGTTVTVSS
VL: AIQLTQSPSSLSASVGDRVTITCRASQGISSYLAWYQQKPGKAPKLLIYAASTLQSGVPSRFSGSGSGTDFTLTISSLQPEDFATYYCQQLNSYPPAFGGGTKVEIK
As for B1, the binding result is recorded as “binds”.
